We go through 94 variants from IntAct's records for PubMed 29039417.

B1: Protein PTHB1 (Homo sapiens), Q3SYG4 (parent)
chain: MSLFKARDWWSTILGDKEEFDQGCLCLANVDNSGNGQDKIIVGSFMGYLRIFSPHPAKTGDGAQAEDLLLEVDLRDPVLQVEVGKFVSGTEMLHLAVLHSRKLCVYSVSGTLGNVEHGNQCQMKLMYEHNLQRTACNMTYGSFGGVKGRDLICIQSMDGMLMVFEQESYAFGRFLPGFLLPGPLAYSSRTDSFLTVSSCQQVESYKYQVLAFATDADKRQETEQQKLGSGKRLVVDWTLNIGEQALDICIVSFNQSASSVFVLGERNFFCLKDNGQIRFMKKLDWSPSCFLPYCSVSEGTINTLIGNHNNMLHIYQDVTLKWATQLPHIPVAVRVGCLHDLKGVIVTLSDDGHLQCSYLGTDPSLFQAPNVQSRELNYDELDVEMKELQKIIKDVNKSQGVWPMTEREDDLNVSVVVSPNFDSVSQATDVEVGTDLVPSVTVKVTLQNRVILQKAKLSVYVQPPLELTCDQFTFEFMTPDLTRTVSFSVYLKRSYTPSELEGNAVVSYSRPTDRNPDGIPRVIQCKFRLPLKLICLPGQPSKTASHKITIDTNKSPVSLLSLFPGFASQSDDDQVNVMGFHFLGGARITVLASKTSQRYRIQSEQFEDLWLITNELILRLQEYFEKQGVKDFACSFSGSIPLQEYFELIDHHFELRINGEKLEELLSERAVQFRAIQRRLLARFKDKTPAPLQHLDTLLDGTYKQVIALADAVEENQGNLFQSFTRLKSATHLVILLIALWQKLSADQVAILEAAFLPLQEDTQELGWEETVDAAISHLLKTCLSKSSKEQALNLNSQLNIPKDTSQLKKHITLLCDRLSKGGRLCLSTDAAAPQTMVMPGGCTTIPESDLEERSVEQDSTELFTNHRHLTAETPRPEVSPLQGVSE
partner: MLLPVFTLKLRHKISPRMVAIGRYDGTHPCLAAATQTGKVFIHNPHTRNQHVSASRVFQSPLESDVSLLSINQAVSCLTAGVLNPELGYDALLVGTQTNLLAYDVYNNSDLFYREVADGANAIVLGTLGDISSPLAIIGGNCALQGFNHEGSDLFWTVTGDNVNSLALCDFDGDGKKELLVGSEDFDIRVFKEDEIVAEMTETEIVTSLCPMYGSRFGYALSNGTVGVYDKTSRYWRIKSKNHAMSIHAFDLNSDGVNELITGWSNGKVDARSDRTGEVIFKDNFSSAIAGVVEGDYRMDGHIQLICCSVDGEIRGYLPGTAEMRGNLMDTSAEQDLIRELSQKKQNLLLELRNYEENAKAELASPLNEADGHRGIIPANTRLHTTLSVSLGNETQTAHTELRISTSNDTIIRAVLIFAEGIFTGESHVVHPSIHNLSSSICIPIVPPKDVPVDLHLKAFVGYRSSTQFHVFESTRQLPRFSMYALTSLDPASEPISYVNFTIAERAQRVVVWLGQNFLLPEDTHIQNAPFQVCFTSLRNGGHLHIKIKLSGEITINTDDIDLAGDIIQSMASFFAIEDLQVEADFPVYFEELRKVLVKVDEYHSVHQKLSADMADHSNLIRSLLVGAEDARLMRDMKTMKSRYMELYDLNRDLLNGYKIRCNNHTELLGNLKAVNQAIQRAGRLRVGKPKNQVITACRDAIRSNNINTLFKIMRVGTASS
B2: Protein PTHB1 (Homo sapiens), Q3SYG4 (parent)
chain: B1 chain
partner: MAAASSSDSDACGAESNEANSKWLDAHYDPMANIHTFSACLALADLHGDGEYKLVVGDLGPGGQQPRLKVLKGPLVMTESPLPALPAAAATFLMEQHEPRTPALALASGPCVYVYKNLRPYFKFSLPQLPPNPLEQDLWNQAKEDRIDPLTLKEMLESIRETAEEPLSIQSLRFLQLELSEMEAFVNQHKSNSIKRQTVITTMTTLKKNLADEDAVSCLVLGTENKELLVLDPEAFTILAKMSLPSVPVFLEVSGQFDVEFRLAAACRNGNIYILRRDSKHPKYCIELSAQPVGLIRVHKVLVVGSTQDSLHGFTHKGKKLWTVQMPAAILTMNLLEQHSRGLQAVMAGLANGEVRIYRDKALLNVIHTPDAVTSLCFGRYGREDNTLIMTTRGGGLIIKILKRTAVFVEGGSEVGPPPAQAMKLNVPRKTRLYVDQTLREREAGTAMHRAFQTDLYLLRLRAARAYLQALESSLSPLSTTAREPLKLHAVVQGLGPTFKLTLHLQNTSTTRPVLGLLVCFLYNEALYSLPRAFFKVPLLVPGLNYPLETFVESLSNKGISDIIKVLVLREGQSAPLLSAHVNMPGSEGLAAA

Variants of B1 are the subject of one assay. The conditions noted are these: with bbs2_human BBS2, Q9BXC9.
In the case of T441K, the “effect of a mutation on the interaction” value is on record as “with no effect”.

On to T441A, for which the “effect of a mutation on the interaction” value is on record as “with no effect”.

Consider F421K, for which the “effect of a mutation on the interaction” value was “with no effect”.

On to F421E, for which the “effect of a mutation on the interaction” value is listed as “with no effect”.

As to F421A, the “effect of a mutation on the interaction” value is listed as “with no effect”.

In the case of E431K, the “effect of a mutation on the interaction” value is listed as “with no effect”.

Regarding E431A, the “effect of a mutation on the interaction” value is “with no effect”.

Turning to S439K, the “effect of a mutation on the interaction” value is given as “with no effect”.

For the variant S439E, the “effect of a mutation on the interaction” value was “with no effect”.

On to S439A, for which the “effect of a mutation on the interaction” value is listed as “with no effect”.

Consider N448E, for which the “effect of a mutation on the interaction” value is “with no effect”.

On to N448K, for which the “effect of a mutation on the interaction” value is recorded as “with no effect”.

Regarding N448A, the “effect of a mutation on the interaction” value is reported as “with no effect”.

As for V440E, the “effect of a mutation on the interaction” value is “with no effect”.

With V440A, the “effect of a mutation on the interaction” value is reported as “with no effect”.

In the case of V440K, the “effect of a mutation on the interaction” value was “with no effect”.

Turning to V424E, the “effect of a mutation on the interaction” value is “with no effect”.

As to V424K, the “effect of a mutation on the interaction” value is reported as “with no effect”.

As to V424A, the “effect of a mutation on the interaction” value is “with no effect”.

Turning to S418E, the “effect of a mutation on the interaction” value is given as “with no effect”.

Consider S418K, for which the “effect of a mutation on the interaction” value was “with no effect”.

As to S418A, the “effect of a mutation on the interaction” value is listed as “with no effect”.

With G433E, the “effect of a mutation on the interaction” value is “with no effect”.

With G433K, the “effect of a mutation on the interaction” value is “with no effect”.

With G433A, the “effect of a mutation on the interaction” value is “with no effect”.

With I451E, the “effect of a mutation on the interaction” value is listed as “with no effect”.

As to I451K, the “effect of a mutation on the interaction” value was “with no effect”.

As for I451A, the “effect of a mutation on the interaction” value is “with no effect”.

Turning to T445E, the “effect of a mutation on the interaction” value was “with no effect”.

T445K: the “effect of a mutation on the interaction” value was “with no effect”.

Take T445A: the “effect of a mutation on the interaction” value is reported as “with no effect”.

For the variant T405K, the “effect of a mutation on the interaction” value is “with no effect”.

Turning to T405E, the “effect of a mutation on the interaction” value is “with no effect”.

As for T405A, the “effect of a mutation on the interaction” value was “with no effect”.

Consider D435A, for which the “effect of a mutation on the interaction” value is recorded as “with no effect”.

As to D435E, the “effect of a mutation on the interaction” value is “with no effect”.

For D435K, the “effect of a mutation on the interaction” value is listed as “with no effect”.

With T428A, the “effect of a mutation on the interaction” value is listed as “with no effect”.

Turning to T428K, the “effect of a mutation on the interaction” value is on record as “with no effect”.

In the case of T428E, the “effect of a mutation on the interaction” value was “with no effect”.

In the case of R407E, the “effect of a mutation on the interaction” value is on record as “with no effect”.

As for R407A, the “effect of a mutation on the interaction” value was “with no effect”.

Turning to R407K, the “effect of a mutation on the interaction” value is “with no effect”.

Regarding K443E, the “effect of a mutation on the interaction” value is “with no effect”.

K443A: the “effect of a mutation on the interaction” value is “with no effect”.

As to Q426A, the “effect of a mutation on the interaction” value was “with no effect”.

On to Q426E, for which the “effect of a mutation on the interaction” value is “with no effect”.

For Q426K, the “effect of a mutation on the interaction” value is “with no effect”.

For V459K, the “effect of a mutation on the interaction” value was “with no effect”.

On to V459A, for which the “effect of a mutation on the interaction” value is listed as “with no effect”.

In the case of V459E, the “effect of a mutation on the interaction” value is listed as “with no effect”.

With N412E, the “effect of a mutation on the interaction” value is “with no effect”.

Turning to N412K, the “effect of a mutation on the interaction” value is given as “with no effect”.

N412A: the “effect of a mutation on the interaction” value was “with no effect”.

As to E408K, the “effect of a mutation on the interaction” value is listed as “with no effect”.

Consider E408A, for which the “effect of a mutation on the interaction” value is recorded as “with no effect”.

On to A427K, for which the “effect of a mutation on the interaction” value was “with no effect”.

Consider A427E, for which the “effect of a mutation on the interaction” value is “with no effect”.

L446E: the “effect of a mutation on the interaction” value was “with no effect”.

With L446K, the “effect of a mutation on the interaction” value was “with no effect”.

Take L446A: the “effect of a mutation on the interaction” value is listed as “with no effect”.

Regarding V415E, the “effect of a mutation on the interaction” value is “with no effect”.

Consider V415K, for which the “effect of a mutation on the interaction” value was “with no effect”.

On to V415A, for which the “effect of a mutation on the interaction” value was “with no effect”.

The next assay covers variants of B2. The following applies: with bbs1_human BBS1, Q8NFJ9.
I751K: the “effect of a mutation on the interaction” value is listed as “with no effect”.

For E668K, the “effect of a mutation on the interaction” value is reported as “with no effect”.

Regarding F476E, the “effect of a mutation on the interaction” value was “with no effect”.

Turning to L618E, the “effect of a mutation on the interaction” value was “with no effect”.

On to K526E, for which the “effect of a mutation on the interaction” value is “with no effect”.

Turning to Q798E, the “effect of a mutation on the interaction” value is reported as “with no effect”.

In the case of T589K, the “effect of a mutation on the interaction” value was “with no effect”.

For the variant P875K, the “effect of a mutation on the interaction” value is recorded as “with no effect”.

Turning to S414K, the “effect of a mutation on the interaction” value was “with no effect”.

With A592K, the “effect of a mutation on the interaction” value is “with no effect”.

As to S637K, the “effect of a mutation on the interaction” value is “with no effect”.

Regarding R876E, the “effect of a mutation on the interaction” value is reported as “with no effect”.

With W741K, the “effect of a mutation on the interaction” value is listed as “with no effect”.

On to P511A, for which the “effect of a mutation on the interaction” value is reported as “with no effect”.

With A754K, the “effect of a mutation on the interaction” value was “with no effect”.

In the case of F646A, the “effect of a mutation on the interaction” value is on record as “with no effect”.

As for N796K, the “effect of a mutation on the interaction” value was “with no effect”.

Regarding I707E, the “effect of a mutation on the interaction” value is given as “with no effect”.

Turning to M578K, the “effect of a mutation on the interaction” value is “with no effect”.

Take R587T: the “effect of a mutation on the interaction” value is listed as “disrupting interaction strength”.

Regarding K728E, the “effect of a mutation on the interaction” value is given as “with no effect”.

For the variant T613E, the “effect of a mutation on the interaction” value is given as “with no effect”.

Consider G718E, for which the “effect of a mutation on the interaction” value was “with no effect”.

Turning to P497E, the “effect of a mutation on the interaction” value was “with no effect”.

As for R600A, the “effect of a mutation on the interaction” value is given as “with no effect”.

For the variant R600K, the “effect of a mutation on the interaction” value is given as “with no effect”.

Regarding G585E, the “effect of a mutation on the interaction” value is recorded as “with no effect”.

For T865K, the “effect of a mutation on the interaction” value was “with no effect”.

Turning to L814E, the “effect of a mutation on the interaction” value is recorded as “with no effect”.

Take Q677E: the “effect of a mutation on the interaction” value was “with no effect”.
